Laboratory results reported in US20160263148A1 (University of Washington, published 2016).
Positions of bridges follow the written chain, without caps; N, C: chain ends. Non-standard residues stand in square brackets, D forms with d. p(HEMA-co-NHSMA) = copolymer of 2-hydroxyethyl methacrylate and N-hydroxysuccinimidyl ester methacrylate; Hyp = O=C(O)[C@@H]1C[C@@H](O)CN1

T1: Fibrin (pure fibrin clots formed from fibrinogen and thrombin), P02671
T1 chain 1: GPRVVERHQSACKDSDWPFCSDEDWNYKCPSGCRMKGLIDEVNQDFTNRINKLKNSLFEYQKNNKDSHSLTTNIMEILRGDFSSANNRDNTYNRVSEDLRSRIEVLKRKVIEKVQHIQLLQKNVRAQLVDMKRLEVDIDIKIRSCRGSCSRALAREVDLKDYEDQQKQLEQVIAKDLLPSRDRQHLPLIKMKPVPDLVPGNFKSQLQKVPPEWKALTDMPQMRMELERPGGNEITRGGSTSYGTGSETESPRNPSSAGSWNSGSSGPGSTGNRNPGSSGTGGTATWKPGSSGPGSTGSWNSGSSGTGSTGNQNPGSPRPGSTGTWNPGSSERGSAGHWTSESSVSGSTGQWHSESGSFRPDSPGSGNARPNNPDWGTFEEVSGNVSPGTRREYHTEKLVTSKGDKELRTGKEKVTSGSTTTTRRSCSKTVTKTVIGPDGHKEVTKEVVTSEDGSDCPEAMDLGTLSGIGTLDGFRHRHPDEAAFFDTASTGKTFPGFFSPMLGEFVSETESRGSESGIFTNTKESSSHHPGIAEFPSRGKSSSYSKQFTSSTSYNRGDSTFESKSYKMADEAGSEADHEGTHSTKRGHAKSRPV
T1 chain 2: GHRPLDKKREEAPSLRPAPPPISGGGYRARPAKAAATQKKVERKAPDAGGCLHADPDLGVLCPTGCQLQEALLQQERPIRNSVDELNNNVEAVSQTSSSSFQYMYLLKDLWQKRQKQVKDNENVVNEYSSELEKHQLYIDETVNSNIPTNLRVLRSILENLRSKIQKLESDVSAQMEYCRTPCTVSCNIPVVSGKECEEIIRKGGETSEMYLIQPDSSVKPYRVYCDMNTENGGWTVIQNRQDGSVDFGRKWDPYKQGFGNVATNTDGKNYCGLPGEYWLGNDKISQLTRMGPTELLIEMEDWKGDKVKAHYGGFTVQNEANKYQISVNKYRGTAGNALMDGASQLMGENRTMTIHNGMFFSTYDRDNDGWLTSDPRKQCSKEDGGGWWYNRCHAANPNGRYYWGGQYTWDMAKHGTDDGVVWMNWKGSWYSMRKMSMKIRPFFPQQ
T1 chain 3: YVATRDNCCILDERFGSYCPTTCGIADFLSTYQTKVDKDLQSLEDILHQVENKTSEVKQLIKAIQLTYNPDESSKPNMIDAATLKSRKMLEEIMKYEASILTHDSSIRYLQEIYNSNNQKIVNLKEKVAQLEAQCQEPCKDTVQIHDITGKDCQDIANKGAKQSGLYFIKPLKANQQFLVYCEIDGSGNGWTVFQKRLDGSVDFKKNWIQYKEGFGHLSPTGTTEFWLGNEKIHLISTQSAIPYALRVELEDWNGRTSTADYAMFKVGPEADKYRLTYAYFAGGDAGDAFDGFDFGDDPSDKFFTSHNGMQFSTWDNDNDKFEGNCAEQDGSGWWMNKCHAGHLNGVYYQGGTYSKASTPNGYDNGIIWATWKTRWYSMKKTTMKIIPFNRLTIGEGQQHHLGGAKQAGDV

T2: Fibrin (pure fibrin clots formed from fibrinogen and thrombin) (UniProt P02671 36-629; P02675 45-491; P02679 27-437, limits assumed)
T2 sequence (looked up) 1: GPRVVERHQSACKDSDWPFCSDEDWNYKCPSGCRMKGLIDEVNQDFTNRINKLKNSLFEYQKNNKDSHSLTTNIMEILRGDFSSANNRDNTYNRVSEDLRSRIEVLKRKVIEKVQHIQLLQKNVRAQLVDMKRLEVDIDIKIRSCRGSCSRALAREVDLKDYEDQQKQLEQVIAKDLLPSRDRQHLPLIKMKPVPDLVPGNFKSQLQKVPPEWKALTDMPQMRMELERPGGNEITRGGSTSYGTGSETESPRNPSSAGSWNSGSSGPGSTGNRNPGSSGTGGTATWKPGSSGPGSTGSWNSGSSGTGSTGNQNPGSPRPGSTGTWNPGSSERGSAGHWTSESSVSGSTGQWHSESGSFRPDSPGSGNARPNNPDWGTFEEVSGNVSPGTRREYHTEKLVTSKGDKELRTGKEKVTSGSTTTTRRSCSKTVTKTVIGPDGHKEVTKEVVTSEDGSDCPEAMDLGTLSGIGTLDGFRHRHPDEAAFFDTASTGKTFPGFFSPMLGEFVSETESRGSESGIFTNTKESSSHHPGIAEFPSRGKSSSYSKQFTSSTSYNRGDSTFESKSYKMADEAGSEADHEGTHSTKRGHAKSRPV
T2 sequence (looked up) 2: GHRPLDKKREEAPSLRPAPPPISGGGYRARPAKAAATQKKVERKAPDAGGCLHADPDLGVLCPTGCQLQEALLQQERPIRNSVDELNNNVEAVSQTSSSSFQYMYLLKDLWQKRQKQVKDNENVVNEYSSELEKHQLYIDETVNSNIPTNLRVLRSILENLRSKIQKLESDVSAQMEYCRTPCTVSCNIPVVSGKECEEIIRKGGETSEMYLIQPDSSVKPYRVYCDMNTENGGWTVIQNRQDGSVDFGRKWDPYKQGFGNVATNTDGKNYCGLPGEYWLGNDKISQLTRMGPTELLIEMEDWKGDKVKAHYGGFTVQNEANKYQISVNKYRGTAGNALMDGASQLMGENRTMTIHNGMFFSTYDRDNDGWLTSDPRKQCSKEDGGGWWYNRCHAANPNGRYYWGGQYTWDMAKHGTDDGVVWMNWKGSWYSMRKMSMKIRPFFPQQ
T2 sequence (looked up) 3: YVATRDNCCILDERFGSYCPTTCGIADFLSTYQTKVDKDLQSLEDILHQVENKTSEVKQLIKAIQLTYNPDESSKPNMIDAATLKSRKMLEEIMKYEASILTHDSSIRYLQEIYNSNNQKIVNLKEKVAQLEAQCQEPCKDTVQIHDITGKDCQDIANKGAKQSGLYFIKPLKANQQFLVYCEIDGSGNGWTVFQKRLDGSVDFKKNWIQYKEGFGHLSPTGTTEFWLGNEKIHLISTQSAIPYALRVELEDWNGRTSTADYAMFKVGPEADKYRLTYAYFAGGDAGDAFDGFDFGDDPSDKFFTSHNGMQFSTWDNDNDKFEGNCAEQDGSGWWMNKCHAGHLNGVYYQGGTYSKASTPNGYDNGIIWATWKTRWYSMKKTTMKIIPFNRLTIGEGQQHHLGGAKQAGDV

B1: Human Factor XIIIa (HFXIIIa) (protein)
chain: GVNLQEFLNVTSVHLFKERWDTNKVDHHTDKYENNKLIVRRGQSFYVQIDFSRPYDPRRDLFRVEYVIGRYPQENKGTYIPVPIVSELQSGKWGAKIVMREDRSVRLSIQSSPKCIVGKFRMYVAVWTPYGVLRTSRNPETDTYILFNPWCEDDAVYLDNEKEREEYVLNDIGVIFYGEVNDIKTRSWSYGQFEDGILDTCLYVMDRAQMDLSGRGNPIKVSRVGSAMVNAKDDEGVLVGSWDNIYAYGVPPSAWTGSVDILLEYRSSENPVRYGQCWVFAGVFNTFLRCLGIPARIVTNYFSAHDNDANLQMDIFLEEDGNVNSKLTKDSVWNYHCWNEAWMTRPDLPVGFGGWQAVDSTPQENSDGMYRCGPASVQAIKHGHVCFQFDAPFVFAEVNSDLIYITAKKDGTHVVENVDATHIGKLIVTKQIGGDGMMDITDTYKFQEGQEEERLALETALMYGAKKPLNTEGVMKSRSNVDMDFEVENAVLGKDFKLSITFRNNSHNRYTITAYLSANITFYTGVPKAEFKKETFDVTLEPLSFKKEAVLIQAGEYMGQLLEQASLHFFVTARINETRDVLAKQKSTVLTIPEIIIKVRGTQVVGSDMTVTVEFTNPLKETLRNVWVHLDGPGVTRPMKKMFREIRPNSTVQWEEVCRPWVSGHRKLIASMSSDSLRHVYGELDVQIQRRPSM
B2: Hemostatic polymer (HP): linear p(HEMA-co-NHSMA) backbone grafted with the cyclic fibrin-binding peptide Ac-Y(DGI)C(HPr)YGLCYIQGK (other)
peptide: Ac-Y[dE]C[Hyp]YGLCYIQGK(p(HEMA-co-NHSMA))-NH2
modifications: disulfide 3-8; also: about 16 peptides grafted per polymer backbone

Columns and labels:
[1] = molecular target: T1, Fibrin (pure fibrin clots formed from …)
[2] = molecular target: T2, Fibrin (pure fibrin clots formed from …); experiment: cell-based or functional assay

| Binder | pore radius of fibrin clots (permeation study) [1] [nm] | clot strength (MA, TEG) relative to controls [2] [times] |
| --- | --- | --- |
| B1 | 286±18 |  |
| B2 |  | 2.5 |
